Laboratory results from publication PMC7290415, “Functional Consequences of the Variable Stoichiometry of the Kv1.3-KCNE4 Complex” (Cells, 2020).

Key:
[1] = biological target: the molecule itself; assay: counting of GFP bleaching steps of single spots (TIRF microscopy); live HEK-293 cells with Kv1.3-loopBAD-GFP and BirA; biotinylated channels at the cell surface immobilised with NeutrAvidin (50 nM) on biotin-collagen-coated glass; step distribution fitted to a binomial with p = 0.67
[2] = biological target: T1, KCNE4-loopBAD-GFP (UniProt Q9WTW3 1-170, biotin on the loopBAD tag (BirA biotin ligase co-expressed)); assay: counting of GFP bleaching steps of single spots (TIRF microscopy); live HEK-293 cells with KCNE4-loopBAD-GFP, Kv1.3-Apple and BirA; biotinylated KCNE4 at the cell surface immobilised with NeutrAvidin (50 nM); motionless GFP spots colocalising with Kv1.3-Apple; conditions: partners not purified
T1 construct: KCNE4; also called KCNE4-pEGFP with loopBAD; KCNE4-GFP; source: HEK-293, electroporated together with BirA, on the cell surface; not shown: loopBAD (biotin acceptor domain), N-terminal, kept
T1 sequence (looked up): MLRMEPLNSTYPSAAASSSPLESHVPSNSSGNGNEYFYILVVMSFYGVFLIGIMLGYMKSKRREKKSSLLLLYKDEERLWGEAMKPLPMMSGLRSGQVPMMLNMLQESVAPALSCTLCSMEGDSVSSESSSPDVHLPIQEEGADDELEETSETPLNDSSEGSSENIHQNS

Binder | stoichiometry N [1] | stoichiometry N [2] [KCNE4 per Kv1.3 channel]
Kv1.3-loopBAD-GFP (natural protein, UniProt P15384 1-525, looked up, biotin on the loopBAD tag (BirA biotin ligase co-expressed), voltage-gated potassium channel Kv1.3; also called GFP-Kv1.3-loopBAD; pEGFP-Kv1.3 with loopBAD; source: HEK-293, electroporated together with BirA, on the cell surface; not shown: loopBAD (biotin acceptor domain), internal (first extracellular loop), kept) MTVVPGDHLLEPEAAGGGGGDPPQGGCVSGGGCDRYEPLPPALPAAGEQDCCGERVVINISGLRFETQLKTLCQFPETLLGDPKRRMRYFDPLRNEYFFDRNRPSFDAILYYYQSGGRIRRPVNVPIDIFSEEIRFYQLGEEAMEKFREDEGFLREEERPLPRRDFQRQVWLLFEYPESSGPARGIAIVSVLVILISIVIFCLETLPEFRDEKDYPASPSQDVFEAANNSTSGASSGASSFSDPFFVVETLCIIWFSFELLVRFFACPSKATFSRNIMNLIDIVAIIPYFITLGTELAERQGNGQQAMSLAILRVIRLVRVFRIFKLSRHSKGLQILGQTLKASMRELGLLIFFLFIGVILFSSAVYFAEADDPSSGFNSIPDAFWWAVVTMTTVGYGDMHPVTIGGKIVGSLCAIAGVLTIALPVPVIVSNFNYFYHRETEGEEQAQYMHVGSCQHLSSSAEELRKARSNSTLSKSEYMVIEEGGMNHSAFPQTPFKTGNSTATCTTNNNPNSCVNIKKIFTDV | 4 | –
Kv1.3-Apple (natural protein, UniProt P15384 1-525, looked up, voltage-gated potassium channel Kv1.3; also called Kv1.3 tagged with mApple; source: HEK-293, electroporated, on the cell surface) MTVVPGDHLLEPEAAGGGGGDPPQGGCVSGGGCDRYEPLPPALPAAGEQDCCGERVVINISGLRFETQLKTLCQFPETLLGDPKRRMRYFDPLRNEYFFDRNRPSFDAILYYYQSGGRIRRPVNVPIDIFSEEIRFYQLGEEAMEKFREDEGFLREEERPLPRRDFQRQVWLLFEYPESSGPARGIAIVSVLVILISIVIFCLETLPEFRDEKDYPASPSQDVFEAANNSTSGASSGASSFSDPFFVVETLCIIWFSFELLVRFFACPSKATFSRNIMNLIDIVAIIPYFITLGTELAERQGNGQQAMSLAILRVIRLVRVFRIFKLSRHSKGLQILGQTLKASMRELGLLIFFLFIGVILFSSAVYFAEADDPSSGFNSIPDAFWWAVVTMTTVGYGDMHPVTIGGKIVGSLCAIAGVLTIALPVPVIVSNFNYFYHRETEGEEQAQYMHVGSCQHLSSSAEELRKARSNSTLSKSEYMVIEEGGMNHSAFPQTPFKTGNSTATCTTNNNPNSCVNIKKIFTDV | – | ≤ 4
